Reference: the supplement of paper PMC10126150
± gives the standard deviation of the averaged measurements.

Test system: ATP
Experiment: switch fluorescence ratio, 500 uM ATP over buffer (Cy3 cluster intensity, sum of 5 cycles each) (fold (ratio)); higher = stronger signal-on switching upon ATP binding; sequences stand for … in TCGTCGGCAGCGTCAGATGTGTATAAGAGACAGTTTTTTTTTTTTTTTTTTTTTTTTT…TC
Conditions: aptamer strand: ATP DNA aptamer (quencher-CACCTGGGGGAGTATTGCGGAGGAAGG + anchor), 100 nM annealed; ATP concentration: 500 uM
Procedure, shortened: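 Cy3-labelled switching-strand clusters on a modified Illumina MiSeq flow-cell were annealed to 100 nM quencher-labelled ATP aptamer, imaged in selection buffer, then imaged after 15 min with 500 uM ATP at 22 °C. Five buffer/ATP cycles ran, with NaOH stripping and re-annealing between them. The fluorescence ratio is summed target-cycle over summed buffer-cycle Cy3 intensity per cluster, averaged per switch-domain sequence. Clusters outside 100-1000 RFU were excluded.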
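Further: ATP exposure 15 min at 22 °C before imaging.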

AGTGGAGGTG
switch fluorescence ratio: 1.03 ± 0.043

TTACGGTAGG
switch fluorescence ratio: 1.01 ± 0.075

AGGGTGGGGC
switch fluorescence ratio: 1.03 ± 0.065

TTAAGGGAGC
switch fluorescence ratio: 1.02 ± 0.052

TACTTACGAT
switch fluorescence ratio: 1.37 ± 0.065

CTCGCTGGTA
switch fluorescence ratio: 1.003 ± 0.0081

GTTAGGGCGT
switch fluorescence ratio: 1.01 ± 0.011

ACAGGCTTTT
switch fluorescence ratio: 1 ± 0.018

TGGTAATTTT
switch fluorescence ratio: 0.998 ± 0.017

AAAGTTCAGT
switch fluorescence ratio: 0.98958 ± 0.00071

TAGTGTGTGA
switch fluorescence ratio: 1.02 ± 0.014

GGGGCCTTTA
switch fluorescence ratio: 0.9592 ± 0.0049

ATGATGTGAG
switch fluorescence ratio: 1.01 ± 0.051

GCCGGAAGGC
switch fluorescence ratio: 0.98 ± 0.076

CATCATTGGG
switch fluorescence ratio: 0.993 ± 0.016

AAAGTTTCGT
switch fluorescence ratio: 1.01 ± 0.018

AAACGAGAAC
switch fluorescence ratio: 3.04 ± 2.8

TTCCTTGGTG
switch fluorescence ratio: 1.94 ± 0.89

GGGATCAGCG
switch fluorescence ratio: 0.988 ± 0.041

TTAGTTTGGA
switch fluorescence ratio: 0.959 ± 0.04

AATAAAGCCT
switch fluorescence ratio: 1.15 ± 0.29

TTATTTAAAT
switch fluorescence ratio: 1 ± 0.04

CGGGGGAGGA
switch fluorescence ratio: 0.997 ± 0.011

CGGGGGGACT
switch fluorescence ratio: 0.998 ± 0.059

TTAAGCTAGG
switch fluorescence ratio: 1.004 ± 0.0054

TGGGTCCAAA
switch fluorescence ratio: 1.006 ± 0.0076

ATGTGATTGG
switch fluorescence ratio: 1.01 ± 0.027

GATTGTTTTA
switch fluorescence ratio: 1.02 ± 0.016

GTTTGGCTTT
switch fluorescence ratio: 1.015 ± 0.0012

ATAGCAGTCG
switch fluorescence ratio: 1.04 ± 0.077

GTTTTGGCG
switch fluorescence ratio: 1.03 ± 0.032

ACCAGCAGCC
switch fluorescence ratio: 1.21 ± 0.025

GTTGGTAATT
switch fluorescence ratio: 0.987 ± 0.015

TCAAGTGCTT
switch fluorescence ratio: 0.9688 ± 0.0071

CTGGTGCATT
switch fluorescence ratio: 1.21 ± 0.11

ATTCGTGGGG
switch fluorescence ratio: 0.97 ± 0.032

GGATTAGGTT
switch fluorescence ratio: 1.01 ± 0.011

TCGTAGGCAT
switch fluorescence ratio: 1.004 ± 0.0036

CGATGGAGTG
switch fluorescence ratio: 0.983 ± 0.027

CATCAGGATG
switch fluorescence ratio: 1.01 ± 0.031

TTCCTTGGTT
switch fluorescence ratio: 1.01 ± 0.012

ACATAAGGTA
switch fluorescence ratio: 1.04 ± 0.03

GAGTTTTTTC
switch fluorescence ratio: 0.993 ± 0.018

TACTGAGACA
switch fluorescence ratio: 1.074 ± 0.0066

AATCGTGGTA
switch fluorescence ratio: 1.01 ± 0.029

ACGAACTTGA
switch fluorescence ratio: 1.19 ± 0.055

GGAGACTTGA
switch fluorescence ratio: 0.986 ± 0.024

GGCAATGAAA
switch fluorescence ratio: 0.999 ± 0.019

AAGCCCTACA
switch fluorescence ratio: 1.01 ± 0.03

TTTGAAGGGG
switch fluorescence ratio: 1.01 ± 0.035

GTCGAGGGAA
switch fluorescence ratio: 0.995 ± 0.022

GCGTTGGGAG
switch fluorescence ratio: 1.018 ± 0.0031

GCTGTATGCA
switch fluorescence ratio: 0.976 ± 0.012

TGAGGGGGGC
switch fluorescence ratio: 1.01 ± 0.044

ACTGTGCGCC
switch fluorescence ratio: 1.01 ± 0.029

AAAAGGGGGA
switch fluorescence ratio: 1.02 ± 0.022

GTTTGAGTTG
switch fluorescence ratio: 1.01 ± 0.038

AAGGAGGGGA
switch fluorescence ratio: 0.978 ± 0.02

TTTATACGT
switch fluorescence ratio: 0.9783 ± 0.0067

TCAAGGTGGG
switch fluorescence ratio: 0.998 ± 0.021

TTATGCAGGT
switch fluorescence ratio: 1.0341 ± 0.00034

GAAAGAGGGG
switch fluorescence ratio: 0.989 ± 0.021

TGGTGATGCA
switch fluorescence ratio: 1.08 ± 0.11

TGTTTGAAGC
switch fluorescence ratio: 0.9679 ± 0.0096

GGTTCTCTAG
switch fluorescence ratio: 0.976 ± 0.01

TTTTCCTGCG
switch fluorescence ratio: 1.65 ± 0.64

CGGGGTGTGG
switch fluorescence ratio: 1.01 ± 0.033

ATGGTTTAGA
switch fluorescence ratio: 1.03 ± 0.031

TTTGATGAGC
switch fluorescence ratio: 1.01 ± 0.034

AGAGCAGGTT
switch fluorescence ratio: 1.02 ± 0.014

TAATCTGGTA
switch fluorescence ratio: 0.986 ± 0.017

AGGGAAGCGG
switch fluorescence ratio: 0.982 ± 0.047

CAGGTAGATC
switch fluorescence ratio: 1.04 ± 0.05

CGGTGGACGA
switch fluorescence ratio: 0.9977 ± 0.005

AACAAGGGCT
switch fluorescence ratio: 1.04 ± 0.014

ACATGGGGGC
switch fluorescence ratio: 1 ± 0.045

AAGTATCGTT
switch fluorescence ratio: 0.999 ± 0.011

GTTGACGGTA
switch fluorescence ratio: 1.01 ± 0.015

AACATTAAAT
switch fluorescence ratio: 1.1 ± 0.1

TACAGGAGGG
switch fluorescence ratio: 1.01 ± 0.021

TGAAGGAGAA
switch fluorescence ratio: 0.929 ± 0.037

GACCTAGCTA
switch fluorescence ratio: 1.14 ± 0.053

GGTTTAAATA
switch fluorescence ratio: 1.003 ± 0.0092

AATACGAATA
switch fluorescence ratio: 1.92 ± 1.2

AAAATTTTGA
switch fluorescence ratio: 0.992 ± 0.025

CTGGGGTAAG
switch fluorescence ratio: 1.01 ± 0.042

TTGCGGTTGA
switch fluorescence ratio: 1.0313 ± 0.00057

AAAAGCTTGC
switch fluorescence ratio: 1.13 ± 0.11

TCAAATCCTG
switch fluorescence ratio: 1.05 ± 0.047

CTATTATGTT
switch fluorescence ratio: 1 ± 0.019

TCTAACAGCC
switch fluorescence ratio: 1.06 ± 0.028

GCAAGTGGTG
switch fluorescence ratio: 1.02 ± 0.03

TTCAAGCTGA
switch fluorescence ratio: 1.09 ± 0.069

GATACACCCG
switch fluorescence ratio: 1.153 ± 0.0039

TGGGGATCGT
switch fluorescence ratio: 0.982 ± 0.026

TTCGGAGTT
switch fluorescence ratio: 1.04 ± 0.017

ATGGGGGCAG
switch fluorescence ratio: 1.03 ± 0.027

TGATAAAACG
switch fluorescence ratio: 0.992 ± 0.041

GATAGCATTT
switch fluorescence ratio: 1.04 ± 0.039

TAAGGGGTGC
switch fluorescence ratio: 1.06 ± 0.014

TTCAAGTAGT
switch fluorescence ratio: 0.997 ± 0.02

CGATTGCAG
switch fluorescence ratio: 1.0118 ± 0.00044

GGCATTGGGT
switch fluorescence ratio: 1.0068 ± 0.00028

TAAAACCTGA
switch fluorescence ratio: 1.17 ± 0.054

AAGTGGAAAT
switch fluorescence ratio: 0.9962 ± 0.0019

AGAGTCGTTT
switch fluorescence ratio: 0.9853 ± 0.0046

CGACTTGGTA
switch fluorescence ratio: 0.9766 ± 0.0011

AAAAATCCTG
switch fluorescence ratio: 0.98 ± 0.021

TTAGATTACG
switch fluorescence ratio: 0.998 ± 0.021

TGGCCTAATG
switch fluorescence ratio: 0.965 ± 0.013

TTGGTTTTGC
switch fluorescence ratio: 0.99 ± 0.019

GGTAGAGTAA
switch fluorescence ratio: 1 ± 0.033

TCAGTAGGGA
switch fluorescence ratio: 2.94 ± 2.8

AAAAGGGAGA
switch fluorescence ratio: 1.01 ± 0.013

GGTTTCGTAG
switch fluorescence ratio: 1.01 ± 0.027

TGGCTTAACG
switch fluorescence ratio: 0.961 ± 0.0041

ATTACTTTGC
switch fluorescence ratio: 1.05 ± 0.021

TATGTGGCGG
switch fluorescence ratio: 0.974 ± 0.022

GTGTATGTTG
switch fluorescence ratio: 0.9976 ± 0.0067

TTTAAGATGG
switch fluorescence ratio: 1.02 ± 0.02

TAGAGCGTAT
switch fluorescence ratio: 1 ± 0.033

TTGTTGAGTC
switch fluorescence ratio: 1 ± 0.032

ATGGGTATTT
switch fluorescence ratio: 1.02 ± 0.035

TGATGGAAAA
switch fluorescence ratio: 0.998 ± 0.023

CTGGGGGGAT
switch fluorescence ratio: 0.987 ± 0.021

AGGAAGGG
switch fluorescence ratio: 1.0069 ± 0.00083

AAGTTGATGC
switch fluorescence ratio: 1.011 ± 0.0027

TGGGTTTATG
switch fluorescence ratio: 1 ± 0.03

CAATGTAAGA
switch fluorescence ratio: 0.989 ± 0.012

GGGGGCGGTT
switch fluorescence ratio: 1.02 ± 0.026

TCATAAAGTT
switch fluorescence ratio: 0.994 ± 0.034

TGCCGGTTGC
switch fluorescence ratio: 0.99 ± 0.12

AAACGGGGGC
switch fluorescence ratio: 1 ± 0.085

GCTTGATGTG
switch fluorescence ratio: 0.986 ± 0.015

ATCGTTACGA
switch fluorescence ratio: 1.02 ± 0.026

AACTCTGGTT
switch fluorescence ratio: 0.968 ± 0.048

TTTCCGATGA
switch fluorescence ratio: 1.08 ± 0.032

GTTTACGGGG
switch fluorescence ratio: 0.997 ± 0.041

GCATGTATAT
switch fluorescence ratio: 0.978 ± 0.045

TTTTGGGTCG
switch fluorescence ratio: 1.03 ± 0.025

GGTAAATTGA
switch fluorescence ratio: 1.04 ± 0.03

AAAATAGCCG
switch fluorescence ratio: 1.04 ± 0.054

TAAGGGTGGG
switch fluorescence ratio: 1 ± 0.043

TCCTACGTTT
switch fluorescence ratio: 1.75 ± 0.86

ATCGTTCGCG
switch fluorescence ratio: 0.996 ± 0.016

CTATGAAGGG
switch fluorescence ratio: 0.963 ± 0.034

CGATCTGCTC
switch fluorescence ratio: 1.06 ± 0.025

CGCGTGTGTG
switch fluorescence ratio: 1.02 ± 0.038

GTGTTTTTGG
switch fluorescence ratio: 0.983 ± 0.022

TGAAATGGGA
switch fluorescence ratio: 1.0074 ± 0.00077

ACATCGGAAC
switch fluorescence ratio: 1.04 ± 0.015

CATTGCAGAT
switch fluorescence ratio: 0.981 ± 0.037

TAAAGTGCGG
switch fluorescence ratio: 1.03 ± 0.058

ATAAATGATA
switch fluorescence ratio: 1 ± 0.049

TAATGGCCTT
switch fluorescence ratio: 0.9862 ± 0.0021

CGGTGTTGGA
switch fluorescence ratio: 0.978 ± 0.039

ACTTGTGGGG
switch fluorescence ratio: 0.973 ± 0.037

CAATGGGGCT
switch fluorescence ratio: 1.02 ± 0.038

AAAAGTTGTT
switch fluorescence ratio: 1.04 ± 0.019

ATGAAGTGGA
switch fluorescence ratio: 0.9555 ± 0.0093

TCTGGTGTTC
switch fluorescence ratio: 1.045 ± 0.005

AGGGAAGATA
switch fluorescence ratio: 0.998 ± 0.014

ACTAAAGAGC
switch fluorescence ratio: 1.12 ± 0.2

TTGTTAGAGT
switch fluorescence ratio: 0.9809 ± 0.0019

ACAGGTTTGC
switch fluorescence ratio: 1.007 ± 0.0039

TGTCTTTTGA
switch fluorescence ratio: 1.003 ± 0.0059

GGTTGGTGCG
switch fluorescence ratio: 1.1 ± 0.074

TTTCTGGCGG
switch fluorescence ratio: 1.02 ± 0.025

TGTGTAATTT
switch fluorescence ratio: 0.999 ± 0.012

AAGAGGGGG
switch fluorescence ratio: 0.977 ± 0.026

AGATTTTGCG
switch fluorescence ratio: 0.991 ± 0.01

GCGTTTAAAG
switch fluorescence ratio: 0.994 ± 0.023

AAATATCGGT
switch fluorescence ratio: 0.971 ± 0.018

CGATAGGTGG
switch fluorescence ratio: 0.975 ± 0.094

TTTGCAGGGC
switch fluorescence ratio: 1.05 ± 0.012

TGCACCCGTA
switch fluorescence ratio: 1.054 ± 0.0013

TGTTAGGGGA
switch fluorescence ratio: 1.01 ± 0.02

TTCGTTTGTG
switch fluorescence ratio: 0.971 ± 0.027

AGTAGTATAT
switch fluorescence ratio: 0.994 ± 0.03

AGTATCATGT
switch fluorescence ratio: 1.02 ± 0.063

TAAAAGAGGT
switch fluorescence ratio: 0.9962 ± 0.0081

TCAAGAGTTC
switch fluorescence ratio: 1.01 ± 0.06

AGAAATTAGT
switch fluorescence ratio: 1.03 ± 0.015

CCATGGATCA
switch fluorescence ratio: 0.9992 ± 0.0091

TAATTGGGGG
switch fluorescence ratio: 1 ± 0.03

CACTTCGCCA
switch fluorescence ratio: 2.12 ± 0.17

GAAAGGTTTT
switch fluorescence ratio: 0.9729 ± 0.0055

ACGGTGGCGT
switch fluorescence ratio: 1.02 ± 0.016

TGATGAAGAT
switch fluorescence ratio: 0.9817 ± 0.0071

TTTAATGGGT
switch fluorescence ratio: 1 ± 0.022

TTTTGGGGGC
switch fluorescence ratio: 1.01 ± 0.023

TTCTGTCTGT
switch fluorescence ratio: 1.05 ± 0.052

GGTACTAATA
switch fluorescence ratio: 1.023 ± 0.007

CTGGCAAGGT
switch fluorescence ratio: 1.09 ± 0.031

AGATCGGTTT
switch fluorescence ratio: 1 ± 0.042

TATAAACTGT
switch fluorescence ratio: 0.993 ± 0.015

GGGAGAGGGA
switch fluorescence ratio: 0.978 ± 0.021

GATTATTTTC
switch fluorescence ratio: 1.03 ± 0.061

TTATTGACGC
switch fluorescence ratio: 0.937 ± 0.095

TAGGTTGTCG
switch fluorescence ratio: 0.973 ± 0.077
